Assay results as given in PMC9352680, “A comprehensive thermodynamic model for RNA binding by the Saccharomyces cerevisiae Pumilio protein PUF4”.
Residue numbers refer to the chain shown, from its start. Names may count otherwise.

T1: PUF4 RNA-binding domain (Saccharomyces cerevisiae, UniProt P25339 537-888)
T1 sequence: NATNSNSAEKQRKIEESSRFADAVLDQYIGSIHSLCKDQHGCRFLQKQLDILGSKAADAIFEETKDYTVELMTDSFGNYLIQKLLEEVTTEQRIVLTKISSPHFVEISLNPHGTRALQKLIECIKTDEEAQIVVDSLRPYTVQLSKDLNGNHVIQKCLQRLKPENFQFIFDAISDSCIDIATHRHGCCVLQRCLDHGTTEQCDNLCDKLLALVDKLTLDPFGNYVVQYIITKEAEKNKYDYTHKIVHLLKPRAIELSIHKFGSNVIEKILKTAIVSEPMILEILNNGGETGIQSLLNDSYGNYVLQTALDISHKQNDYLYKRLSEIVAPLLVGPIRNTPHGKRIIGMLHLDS

B1: Id_ii_S4_P3E.3_K3.2_C3.2_[T-1C]_H3.2_A3.1_F3.1_T3.2_[T9C]_[A10T] (ssRNA)
RNA: UUUGACAACUGAUCGUUCUUUCUCCUAUAUAUACUUUCUUUCUCGAUCAGUUGUCUUU
B2: Id_ii_S4_P3E.3_K3.2_C3.2_[C-2T]_[T-1A]_H3.2_A3.1_F3.1_T3.2_[A10C] (ssRNA)
RNA: B1 RNA with C24U, C25A, C34U, U35C
B3: Id_ii_S4_P3E.3_K3.2_C3.2_[C-2A]_[T-1A]_H3.2_A3.1_F3.1_T3.2_[T9A] (ssRNA)
RNA: B1 RNA with C24A, C25A, C34A, U35A
B4: Id_ii_S4_P3E.4_K3.3_C3.2_[C-2G]_H3.3_A3.1_F3.1_T3.2_[T9C]_[A10C] (ssRNA)
RNA: B1 RNA with C24G, C25U, U26A, A27C, U28A, A29C, U35C
B5: Id_ii_S4_P3E.3_K3.2_C3.2_[C-2A]_[T-1C]_H3.2_A3.1_F3.1_T3.2_[T9C]_[A10C] (ssRNA)
RNA: B1 RNA with C24A, U35C
B6: Id_ii_S4_P3E.3_K3.2_C3.2_[C-2A]_[T-1G]_H3.2_A3.1_F3.1_T3.2_[T9A]_[A10G] (ssRNA)
RNA: B1 RNA with C24A, C25G, C34A, U35G
B7: Id_ii_S4_P3E.3_K3.2_C3.2_[T-1G]_H3.2_A3.1_F3.1_T3.2_[T9G]_[A10C] (ssRNA)
RNA: B1 RNA with C25G, C34G, U35C
B8: Id_ii_S4_P3E.3_K3.2_C3.2_[T-1G]_H3.2_A3.1_F3.1_T3.2_[T9C]_[A10C] (ssRNA)
RNA: B1 RNA with C25G, U35C
B9: Id_ii_S4_P3E.3_K3.2_C3.2_[C-2A]_[T-1A]_H3.2_A3.1_F3.1_T3.2_[T9A]_[A10C] (ssRNA)
RNA: B1 RNA with C24A, C25A, C34A, U35C
B10: Id_ii_S4_P3E.3_K3.2_C3.2_[C-2A]_H3.2_A3.1_F3.1_T3.2_[A10T] (ssRNA)
RNA: B1 RNA with C24A, C25U, C34U
B11: Id_ii_S4_P3E.3_K3.2_C3.2_[T-1C]_H3.2_A3.1_F3.1_T3.2_[A10G] (ssRNA)
RNA: B1 RNA with C34U, U35G
B12: Id_ii_S4_P3E.3_K3.2_C3.2_[T-1A]_H3.2_A3.1_F3.1_T3.2_[T9A] (ssRNA)
RNA: B1 RNA with C25A, C34A, U35A
B13: Id_ii_S4_P3E.3_K3.2_C3.2_H3.2_A3.1_F3.1_T3.2_[T9A]_[A10C] (ssRNA)
RNA: B1 RNA with C25U, C34A, U35C
B14: Id_ii_S4_P3E.3_K3.2_C3.2_[T-1C]_H3.2_A3.1_F3.1_T3.2_[T9C]_[A10C] (ssRNA)
RNA: B1 RNA with U35C
B15: Id_ii_S4_P3E.4_K3.3_C3.2_[C-2G]_[T-1C]_H3.3_A3.1_F3.1_T3.2_[T9A]_[A10T] (ssRNA)
RNA: B1 RNA with C24G, U26A, A27C, U28A, A29C, C34A
B16: Id_ii_S4_P3E.3_K3.2_C3.2_[C-2T]_[T-1C]_H3.2_A3.1_F3.1_T3.2_[A10T] (ssRNA)
RNA: B1 RNA with C24U, C34U
B17: Id_ii_S4_P3E.3_K3.2_C3.2_H3.2_A3.1_F3.1_T3.2_[A10C] (ssRNA)
RNA: B1 RNA with C25U, C34U, U35C
B18: Id_ii_S4_P3E.3_K3.2_C3.2_[T-1C]_H3.2_A3.1_F3.1_T3.2_[A10T] (ssRNA)
RNA: B1 RNA with C34U
B19: Id_ii_S4_P3E.4_K3.3_C3.2_[C-2G]_H3.3_A3.1_F3.1_T3.2_[A10T] (ssRNA)
RNA: B1 RNA with C24G, C25U, U26A, A27C, U28A, A29C, C34U
B20: Id_ii_S4_P3E.3_K3.2_C3.2_[C-2A]_[T-1C]_H3.2_A3.1_F3.1_T3.2_[T9C]_[A10G] (ssRNA)
RNA: B1 RNA with C24A, U35G
B21: Id_ii_S4_P3E.3_K3.2_C3.2_[C-2T]_H3.2_A3.1_F3.1_T3.2_[T9G]_[A10T] (ssRNA)
RNA: B1 RNA with C24U, C25U, C34G
B22: Id_ii_S4_P3E.3_K3.2_C3.2_[C-2A]_H3.2_A3.1_F3.1_T3.2_[A10G] (ssRNA)
RNA: B1 RNA with C24A, C25U, C34U, U35G
B23: Id_ii_S4_P3E.3_K3.2_C3.2_[T-1A]_H3.2_A3.1_F3.1_T3.2_[T9G]_[A10C] (ssRNA)
RNA: B1 RNA with C25A, C34G, U35C
B24: Id_ii_S4_P3E.3_K3.2_C3.2_H3.2_A3.1_F3.1_T3.2_[A10G] (ssRNA)
RNA: B1 RNA with C25U, C34U, U35G
B25: Id_ii_S4_P3E.3_K3.2_C3.2_[C-2T]_[T-1A]_H3.2_A3.1_F3.1_T3.2_[T9C] (ssRNA)
RNA: B1 RNA with C24U, C25A, U35A

target: T1, PUF4 RNA-binding domain; experiment: Mg; RNA-MaP; 20 mM Na-HEPES pH 7.4, 30 mM KOAc, 0.75 mM MgCl2, 0.1% Tween-20, 5% glycerol, 0.1 mg/mL BSA, 2 mM DTT; 25 C; 0.0125-409.6 nM protein; details: tags: N-His6-TEV cleaved; C-SNAP kept, Cy3B-labelled; label: tethered on chip by stalled RNA polymerase

B1 and B2 are within 1.5-fold of each other in Kd: 92.9 nM for the first, 108 nM for the second.

Going from B3 to B4, the Kd falls from 723 nM to 1.46 nM (500-fold).

Going from B5 to B6, the Kd rises from 184 nM to 1140 nM (6.2-fold).

Going from B7 to B8, the Kd rises from 194 nM to 978 nM (5-fold).

First: B9
Second: B10
The Kd of the first is 2.2-fold higher: 445 nM for the first, 203 nM for the second.

Going from B11 to B12, the Kd rises from 126 nM to 842 nM (6.7-fold). The first binds more tightly here.

B13 and B14 are within 1.5-fold of each other in Kd: 176 nM for the first, 244 nM for the second.

First: B15
Second: B16
The Kd of the first is 1.6-fold higher: 60.5 nM for the first, 38 nM for the second.

Going from B17 to B18, the Kd falls from 104 nM to 37.4 nM (2.8-fold).

Compared with B19, B20 is 3600-fold higher in Kd: 0.57 nM for the first, 2050 nM for the second.

Going from B21 to B22, the Kd rises from 575 nM to 978 nM (1.7-fold). The first binds more tightly here.

B23 and B24 are within 1.5-fold of each other in Kd: 243 nM for the first, 276 nM for the second.

Going from B25 to UCUCUUAGUAUUUUUAUCUCUU (ssRNA) [Ib_S1_P5E.1_K5.1_C5.1_H5.1_[T1A]_A5.1_[A7T]_F5.1_T5.1], the Kd rises from 94.6 nM to 1470 nM (16-fold). The first binds more tightly here.

Going from UCUCUUCGUAUUGUUAUCUCUU (ssRNA) [Ib_S1_P5E.1_K5.1_C5.1_H5.1_[T1C]_A5.1_[A7G]_F5.1_T5.1] to UCUCUUAGUAUUCUUAUCUCUU (ssRNA) [Ib_S1_P5E.1_K5.1_C5.1_H5.1_[T1A]_A5.1_[A7C]_F5.1_T5.1], the Kd falls from > 2300 nM to 1460 nM. The second binds more tightly here.

In the case of UCUCUUUCUACUAUUAUCUCUU (ssRNA) [Ib_S1_P5E.1_K5.1_C5.1_H5.1_[G2C]_A5.1_[T5C]_F5.1_T5.1], the Kd is reported as > 2300 nM.
